# Reference: patent US20240002495A1 (MITSUBISHI TANABE PHARMA, published 2024)
# Changes are numbered by the printed parent chain.
# T1: biotinylated 6His tag-AviTag-linked mature human IL-33 (residues 112 to 270) (human, UniProt O95760 112-270, biotin on the AviTag portion (BirA))
# T1 construct: made in E. coli; also called biotinylated human IL-33 protein
# T1 sequence: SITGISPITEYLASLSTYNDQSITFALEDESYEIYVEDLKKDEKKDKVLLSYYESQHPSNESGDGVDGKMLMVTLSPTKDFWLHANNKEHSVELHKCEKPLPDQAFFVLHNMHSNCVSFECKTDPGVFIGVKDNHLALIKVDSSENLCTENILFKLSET
# T2: 6His-AviTag-linked cynomolgus monkey IL-33 (residues 112 to 269) (cynomolgus monkey, UniProt O95760 112-269 (human entry), biotin on the AviTag portion (BirA) in the SPR of Example 7; used without biotinylation in Example 10)
# T2 construct: GenBank EHH57404 printed; also called cynomolgus monkey IL-33 protein; mature cynomolgus monkey IL-33
# T2 chain: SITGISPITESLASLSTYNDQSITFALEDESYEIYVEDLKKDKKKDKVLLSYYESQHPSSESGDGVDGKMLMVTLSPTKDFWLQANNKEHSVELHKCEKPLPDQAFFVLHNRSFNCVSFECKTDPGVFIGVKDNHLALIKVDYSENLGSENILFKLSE
# B1: A25-2E04 (Fab) (Fab, V domains shown)
# VH: EVQLLESGGGLVQPGGSLRLSCAASGFTFSNYYMHWVRQAPGKGLEWVSSISARSSYIYYADSVKGRFTISRDNSKNTLYLQMNSLRAEDTAVYYCARLATRNNAFDIWGQGTLVTVSS
# VL: QSVLTQPPSASGTPGQRVTISCSGSCSNIGRNAVNWYQQLPGTAPKLLIYASNMRVIGVPDRFSGSKSGTSASLAISGLRSEDEADYYCEAWDDSQKGVVFGGGTKLTVL
# notes: Fab secreted by E. coli, tested as culture supernatant; also called V11
# B2: A28-1G07 (Fab) (Fab, V domains shown)
# VH: B1 VH with I58R, N103H, N104S
# VL: B1 VL with C26S, R31H, N35S, V56R, I57L, E90G, G98V
# notes: Fab secreted by E. coli, tested as culture supernatant; also called V24
# B3: A27-1C06 (Fab) (Fab, V domains shown)
# VH: B1 VH with N103H, N104S
# VL: B1 VL with C26S, R31N, V56R, I57L, E90G, G98A, V99F
# notes: Fab secreted by E. coli, tested as culture supernatant; also called V22
# B4: A28-2G07 (Fab) (Fab, V domains shown)
# VH: B1 VH with N31S, N103R, N104I
# VL: B1 VL with C26S, V56R, I57P, E90S, G98A, V99G
# notes: Fab secreted by E. coli, tested as culture supernatant; also called V27
# B5: A25-2H11 (Fab) (Fab, V domains shown)
# VH: B1 VH
# VL: B1 VL with C26S, R31S, N35S, V56G, I57S, E90A, G98V
# notes: Fab secreted by E. coli, tested as culture supernatant; also called V14
# B6: A27-1A06 (Fab) (Fab, V domains shown)
# VH: B1 VH with I58R, N103H, N104L
# VL: B1 VL with C26S, R31N, V56R, I57P, E90A, G98V, V99F
# notes: Fab secreted by E. coli, tested as culture supernatant; also called V21
# B7: A28-2H06 (Fab) (Fab, V domains shown)
# VH: B1 VH with R54L, I58R, N103R, N104V
# VL: B1 VL with C26S, R31N, V56R, I57L, E90A, G98A, V99L
# notes: Fab secreted by E. coli, tested as culture supernatant; also called V28
# B8: A26-2B01 (Fab) (Fab, V domains shown)
# VH: B1 VH with N103H
# VL: B1 VL with C26S, R31N, V56R, I57L, E90A, G98A, V99W
# notes: Fab secreted by E. coli, tested as culture supernatant; also called V20
# B9: A25-3G05 (Fab) (Fab, V domains shown)
# VH: B1 VH with N31H, R54L, K65R, N103R, N104D
# VL: B1 VL with C26S, R31N, V56G, I57L, E90G, G98V, V99F
# notes: Fab secreted by E. coli, tested as culture supernatant; also called V16
# B10: A26-1F02 (Fab) (Fab, V domains shown)
# VH: B1 VH with I58L, N103H, N104V
# VL: B1 VL with C26S, R31N, V56R, I57P, G98A
# notes: Fab secreted by E. coli, tested as culture supernatant; also called V18
# B11: A28-2F01 (Fab) (Fab, V domains shown)
# VH: B1 VH with A53S, Y57H, I58Q, D62G, A100G, T101L, N103H, N104D
# VL: B1 VL with C26S, R31H, N35W, V56R, I57M, E90A, G98A
# notes: Fab secreted by E. coli, tested as culture supernatant; also called V26
# B12: A28-1C08 (Fab) (Fab, V domains shown)
# VH: B1 VH with N31R, N103R, N104D
# VL: B1 VL with C26S, N35S, V56R, I57L, E90W, G98A
# notes: Fab secreted by E. coli, tested as culture supernatant; also called V23
# B13: A25-3H04 (Fab) (Fab, V domains shown)
# VH: B1 VH with N31R, R54Q, Y57H, K65E, N103Q
# VL: B1 VL with C26S, V56R, I57S, E90S, G98V
# notes: Fab secreted by E. coli, tested as culture supernatant; also called V17
# B14: A26-2A05 (Fab) (Fab, V domains shown)
# VH: B1 VH with N103H, N104G
# VL: B1 VL with C26S, R31N, V56R, I57M, E90A, G98A, V99F
# notes: Fab secreted by E. coli, tested as culture supernatant; also called V19
# B15: A28-2C06 (Fab) (Fab, V domains shown)
# VH: B1 VH with D62G, A100G, N103R, N104V
# VL: B1 VL with C26S, V56G, I57M, E90S, G98V
# notes: Fab secreted by E. coli, tested as culture supernatant; also called V25
# Molecular target: T1, biotinylated 6His tag-AviTag-linked …
# Test: SPR, IL-33 on chip, Fab supernatant as analyte
# Experimental: (§1) The library after the enrichment was used to construct a library of Escherichia coli secreting and expressing Fab. The culture supernatants of several hundreds of clones of Escherichia coli were subjected to measurement of dissociation rate constant (koff) by surface plasmon resonance (SPR) (ProteOn XPR36, available from Bio-Rad Laboratories, Inc.). The biotinylated human IL-33 protein (4 μg/mL) and cynomolgus monkey IL-33 protein (4 μg/mL) were loaded as ligands on a sensor chip (NLC sensor chip, available from Bio-Rad Laboratories, Inc.), to immobilize the human IL-33 protein at an amount equivalent to 1300 to 1600 RU, and the cynomolgus monkeyIL-33 protein at an amount equivalent to 1100 to 1500 RU. The culture supernatant of Escherichia coli was then loaded thereon as analyte to obtain a sensorgram with association phase of one minute and dissociation phase of 10 to 30 minutes. The sensorgram was subjected to interspot correction and blank correction using an SPR data analysis program (ProteOn Manager v3.1.0, available from Bio-Rad Laboratories, Inc.), and then values of koff were determined by off-rate analysis of Langmuir model.
Human IL-33 Binding Amount (RU),koff,Binder
195 RU,1.27e-05 s⁻¹,B1
165 RU,1e-05 s⁻¹,B2
294 RU,1e-05 s⁻¹,B3
289 RU,1e-05 s⁻¹,B4
534 RU,1.22e-05 s⁻¹,B5
306 RU,1e-05 s⁻¹,B6
349 RU,1e-05 s⁻¹,B7
364 RU,1e-05 s⁻¹,B8
135 RU,1.34e-05 s⁻¹,B9
96 RU,1e-05 s⁻¹,B10
289 RU,1e-05 s⁻¹,B11
156 RU,1e-05 s⁻¹,B12
0.62 RU,1e-05 s⁻¹,B13
153 RU,1e-05 s⁻¹,B14
123 RU,1e-05 s⁻¹,B15

# Molecular target: T2, 6His-AviTag-linked cynomolgus monkey …
# Test: SPR, IL-33 on chip, Fab supernatant as analyte
# Experimental: as §1
Cynomolgus Monkey IL-33 Binding Amount (RU),koff,Binder
199 RU,1e-05 s⁻¹,B1
173 RU,1.05e-05 s⁻¹,B2
304 RU,1.14e-05 s⁻¹,B3
259 RU,1.14e-05 s⁻¹,B4
492 RU,2.57e-05 s⁻¹,B5
320 RU,1e-05 s⁻¹,B6
317 RU,1e-05 s⁻¹,B7
363 RU,1e-05 s⁻¹,B8
143 RU,2.02e-05 s⁻¹,B9
100 RU,1e-05 s⁻¹,B10
258 RU,1e-05 s⁻¹,B11
144 RU,1e-05 s⁻¹,B12
179 RU,1e-05 s⁻¹,B13
147 RU,1e-05 s⁻¹,B14
134 RU,1e-05 s⁻¹,B15
